Results from US20180215825A1 (BEIGENE, published 2018).
Numbering of substitutions follows the chain as printed. In names and notes the source's numbering stands. Read-outs that look alike come from different tables or passages of the source.

B1: hu333-3C2 Fab (Fab, V domains shown)
VH: EVQLVESGGGLVQPGGSLRLSCAVSGFSLTSYGVHWVRQAPGKGLEWVAVIWAGGSTNYADSVKGRFTISKDNSKNTVYLQMNSLRAEDTAVYYCAKPYGNSAMDYWGQGTLVTVSS
VL: DIQMTQSPSSLSASVGDRVTITCKASQDVGIVVAWYQQKPGKAPKLLIYWASIRHTGVPSRFSGSGSGTEFTLTISSLQPDDFATYYCQQYSNYPLYTFGQGTKVEIK
notes: Human Fab format; constant parts not restated
B2: hu333-4A2 Fab (Fab, V domains shown)
VH: B1 VH with A60V, S74A, N101T
VL: B1 VL
notes: Human IgG1 Fab format: Vh fused to human IgG1-CH1 with C-terminal His6 tag, Vk fused to the constant region of kappa chain
B3: hu333-2B Fab (Fab, V domains shown)
VH: B1 VH with A60V, S74A, T77S
VL: B1 VL with S10T, V105L
notes: Human Fab format, His-tagged; constant parts not restated (as for hu333-1A)
B4: hu333-1A Fab (Fab, V domains shown)
VH: B1 VH with A60N, D61S, S62A, V63L, K64M, G65S, F67L, S74A, T77S
VL: B1 VL with S10T, V105L
notes: Human Fab format: Vh joined to human IgG2 CH1 with C232S and C233S (Kabat numbering) and a C-terminal 8xHis tag; Vk joined to the constant region of human kappa chain
B5: hu333-3A2 Fab (Fab, V domains shown)
VH: B1 VH with A60V, F67L, S74A
VL: B1 VL
notes: as for B1
B6: hu333-3H2 Fab (Fab, V domains shown)
VH: B1 VH with N73T
VL: B1 VL
notes: as for B1
B7: hu333-4B2 Fab (Fab, V domains shown)
VH: B1 VH with N73T, N101T
VL: B1 VL
notes: as for B2
B8: Murine mAb333 (antibody, V domains shown)
VH: QVQLKESGPGLVAPSQSLSITCTVSGFSLTSYGVHWVRQPPGKGLEWLGVIWAGGSTNYNSALMSRLSISKDNSKSQVVLKMNSLQTDDTAMYYCAKPYGNSAMDYWGQGTSVTVSS
VL: DILMTQSHKFMSTSVGDTVSITCKASQDVGIVVAWYQQKPGQSPKLLIYWASIRHTGVPDRFTGSGSGTDFTLTISNVQSEDLADYFCQQYSNYPLYTFGGGTKLEIK
notes: Murine hybridoma mAb; also called mu333; Mu333

Experiments:
[1] = target: T1, human PD-L1, full length, expressed on cells (human, UniProt Q9NZQ7 19-290); test: cell-based or functional assay
[2] = target: T1, human PD-L1, full length, expressed on …; test: FACS competition with biotin-PD-1/Fc on HEK293/PD-L1 cells
[3] = target: T2, human PD-L1-ECD/His (human, UniProt Q9NZQ7 19-238); test: SPR (BIAcore T-200), human PD-L1/His on CM5 chip, Fab injected
T2 construct: Expressed in 293-F cells; also called PD-L1/His; human PD-L1/His
Experimental: (§1) For affinity determinations of anti-PD-L1 Fabs, SPR assays were performed using BIAcore™ T-200 (GE Life Sciences). Briefly, human PD-L1/His was coupled to an activated CM5 biosensor chip (Cat. No. BR100530, GE Life Sciences) to achieve approximately 100-200 response units (RU), followed by blocking un-reacted groups with 1M ethanolamine. A serial dilutions of 0.12 nM to 90 nM Fab samples were injected, mixed into the SPR running buffer (10 mM HEPES, 150 mM NaCl, 0.05% Tween20, pH7.4) at 30 μL/minute, and binding responses on human PD-L1/His were calculated by substracting of RU from a blank flow-cell. Association rates (kₒₙ) and dissociation rates (koff) were calculated using the one-to-one Langmuir binding model (BIA Evaluation Software, GE Life Sciences). The equilibrium dissociation constant (Kd) was calculated as the ratio koff/kₒₙ.
(§2) For affinity determinations of anti-PD-L1 Fabs, SPR assays were conducted using BIAcore™ T-200 instrument (GE Life Sciences, Shanghai, China) as described earlier. Association rates (kₒₙ) and dissociation rates (koff) were calculated using the one-to-one Langmuir binding model (BIA Evaluation Software, GE Life Sciences). The equilibrium dissociation constant (Kd) was calculated as the ratio koff/kₒₙ.

[4] = target: T1, human PD-L1, full length, expressed on …; test: FACS competition with biotin-CD80/Fc on HEK293/PD-L1 cells
[5] = target: T2, human PD-L1-ECD/His; test: SPR (BIAcore T-200), human PD-L1, Fab injected
Experimental: as §1, §2

[6] = target: T1, human PD-L1, full length, expressed on …; test: FACS competition with biotin-PD-1/Fc on HEK293/PD-L1 cells; remark: listed apart in the source
[7] = target: T1, human PD-L1, full length, expressed on …; test: FACS competition with biotin-CD80/Fc on HEK293/PD-L1 cells; remark: listed apart in the source
[8] = target: T3, cynomolgus monkey PD-L1/His (cynomolgus monkey (Macaca fascicularis), UniProt G7PSE7 19-238); test: SPR (BIAcore T-200), monkey PD-L1, Fab injected
T3 construct: extracellular domain; Said to be expressed and purified in a similar way to the human PD-L1/His (PD-L1-ECD/His); not shown: His tag

[9] = target: T1, human PD-L1, full length, expressed on …; test: cell-based or functional assay; remark: listed apart in the source
[10] = target: T1, human PD-L1, full length, expressed on …; test: cell-based or functional assay; remark: listed apart in the source
[11] = target: T1, human PD-L1, full length, expressed on …; test: FACS competition with biotin-PD-1/Fc on HEK293/PD-L1 cells; remark: listed apart in the source
Description: Using this method, we evaluated functional strength of anti-PD-L1 mAbs.

[12] = target: T2, human PD-L1-ECD/His; test: SPR (BIAcore T-200), human PD-L1/His on CM5 chip, Fab injected; remark: listed apart in the source
Experimental: as §1

[13] = target: T1, human PD-L1, full length, expressed on …; test: FACS competition with biotin-CD80/Fc on HEK293/PD-L1 cells; remark: listed apart in the source
[14] = target: T1, human PD-L1, full length, expressed on …; test: cell-based or functional assay; remark: listed apart in the source
[15] = target: T1, human PD-L1, full length, expressed on …; test: FACS competition with biotin-CD80/Fc on HEK293/PD-L1 cells; remark: listed apart in the source
[16] = target: T2, human PD-L1-ECD/His; test: ELISA on coated PD-L1/His
Experimental: (§3) Briefly, 50-200 nanograms of PD-L1/His were diluted in 50 microliters of PBS and coated in each well of 96-well ELISA plates (JinCanHua, Shenzhen, China). After blocking with 3% bovine serum albumin in TBST (20 mM Tris, 150 mM NaCl, 0.05% Tween20, pH7.5) and incubating with culture supernatants of hybridoma clones, the HRP-conjugated horse anti-mouse IgG antibody (Cat. No. 7076S, Cell Signaling Technology) and tetramethylbenzidine (TMB) (Cat. No. PA107-01, TianGen, Beijing, China) were used to detect binding signals by a plate reader (PHREAstar, BMG Labtech, Germany) as light absorbance at 450 nm. The ELISA-positive clones were further verified by fluorescence-activated cell sorting (FACS). PD-L1 expression cells, HEK293/PD-L1 (10⁵ cells/well), were incubated with supernatants from hybridoma clones in V-bottom 96-well plates (Cat. No. 3897, Corning). The cell surface bound PD-L1 antibodies were detected with Dylight 649-conjugated goat anti-mouse IgG antibody (Cat. No. 405312, Biolegend, San Diego, Calif., USA) and cell fluorescence was monitored in a Guava EasyCyte 8HT flow cytometer (Millipore, USA).
(§4) The binding activities of the purified monoclonal antibodies were evaluated in ELISA and FACS assays as described in previous sections. The dose-dependent binding curves in ELISA and FACS were used to compare mAb potency.

[17] = target: T1, human PD-L1, full length, expressed on …; test: FACS on HEK293/PD-L1 cells
Experimental: as §3, §4

[18] = target: T1, human PD-L1, full length, expressed on …; test: cell-based or functional assay; remark: listed apart in the source

T3 sequence (G7PSE7 entry or part of it): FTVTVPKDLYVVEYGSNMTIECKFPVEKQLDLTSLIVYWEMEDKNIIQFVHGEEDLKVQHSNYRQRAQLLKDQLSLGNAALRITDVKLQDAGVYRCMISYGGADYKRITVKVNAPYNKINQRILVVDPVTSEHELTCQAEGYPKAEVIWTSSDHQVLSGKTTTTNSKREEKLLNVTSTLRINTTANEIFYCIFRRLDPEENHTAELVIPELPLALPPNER
T1 sequence (Q9NZQ7 19-290 limits assumed): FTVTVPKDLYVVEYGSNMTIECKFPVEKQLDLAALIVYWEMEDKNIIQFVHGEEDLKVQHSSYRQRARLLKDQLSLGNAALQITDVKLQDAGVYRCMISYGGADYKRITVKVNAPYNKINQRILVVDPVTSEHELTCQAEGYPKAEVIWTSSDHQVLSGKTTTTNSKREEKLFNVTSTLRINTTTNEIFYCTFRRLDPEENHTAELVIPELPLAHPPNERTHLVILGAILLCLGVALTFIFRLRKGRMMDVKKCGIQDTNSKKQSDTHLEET
T2 sequence (Q9NZQ7 19-238): as the sequence (G7PSE7 entry or part of it) above, with T33A, S34A, N62S, Q68R, R82Q, L173F, A185T, I192T, L215H counted along it

IL-2 release in HuT78/P3Z: IC50 [1] [µg/mL]	IL-2 release in HuT78/P3Z: Max inhibition [1] [%]	IL-2 release in HuT78/PD-1: EC50 [1] [µg/mL]	IL-2 release in HuT78/PD-1: Top line [1] [pg/mL]	IC50 [2] [µg/mL]	Max inhibition [2] [%]	Kd [3] [pM]	koff [3] [s⁻¹]	kon [3] [M⁻¹ s⁻¹]	IC50 [4] [µg/mL]	Max inhibition [4] [%]	IC50 [11] [µg/mL]	other results	Binder
0.013	100	0.046	3120	0.065	100	8.09	1.15e-05	1.42e+06	0.073	99			B1
						2.65	1.03e-05	3.88e+06				Kd [5]: 2.65 pM; koff [5]: 1.03e-05 s⁻¹; kon [5]: 3.88e+06 M⁻¹ s⁻¹; IC50 [6]: 0.05 µg/mL; IC50 [7]: 0.045 µg/mL; Kd [8]: 2.91 pM; koff [8]: 9.3e-06 s⁻¹; kon [8]: 3.19e+06 M⁻¹ s⁻¹; IL-2 release in HuT78/P3Z: IC50 [9]: 0.005 µg/mL; IL-2 release in HuT78/PD-1: EC50 [9]: 0.05 µg/mL	B2
											0.062	IL-2 release in HuT78/P3Z: IC50 [10]: 0.011 µg/mL; IL-2 release in HuT78/PD-1: EC50 [10]: 0.054 µg/mL; Kd [12]: 1.54 pM; koff [12]: 2.09e-06 s⁻¹; kon [12]: 1.36e+06 M⁻¹ s⁻¹; IC50 [13]: 0.055 µg/mL	B3
											0.057	IL-2 release in HuT78/P3Z: IC50 [10]: 0.012 µg/mL; IL-2 release in HuT78/PD-1: EC50 [10]: 0.066 µg/mL; Kd [12]: 9.88 pM; koff [12]: 1.59e-05 s⁻¹; kon [12]: 1.61e+06 M⁻¹ s⁻¹; IC50 [13]: 0.049 µg/mL	B4
0.014	95	0.057	2550	0.068	100	0.17	2.2e-07	1.28e+06	0.044	99			B5
0.014	100	0.057	3020	0.071	100	34.9	4.61e-05	1.32e+06	0.064	99			B6
						3.5	1.32e-05	3.78e+06				Kd [5]: 3.5 pM; koff [5]: 1.32e-05 s⁻¹; kon [5]: 3.78e+06 M⁻¹ s⁻¹; IC50 [6]: 0.053 µg/mL; IC50 [7]: 0.062 µg/mL; Kd [8]: 2.5 pM; koff [8]: 8e-06 s⁻¹; kon [8]: 3.2e+06 M⁻¹ s⁻¹; IL-2 release in HuT78/P3Z: IC50 [9]: 0.016 µg/mL; IL-2 release in HuT78/PD-1: EC50 [9]: 0.058 µg/mL	B7
											0.463	Inhibition of IL-2 secretion in HuT78/P3Z cells co-cultured with HEK293/PD-L1 cells: IC50 [14]: 0.021 µg/mL; IC50 [15]: 0.052 µg/mL; EC50 [16]: 0.036 µg/mL; EC50 [17]: 0.099 µg/mL; IL-2 release in HuT78/PD-1 cells co-cultured with HEK293/OS8/PD-L1 cells: EC50 [18]: 0.092 µg/mL	B8
